In PMC12110046 one finds pERK1/2 activity (HTRF), transfected HEK-293 cells, rec-eel LH 250 ng/mL for 0-30 min; peak and EC50 of the cAMP response (HTRF), transfected CHO-K1 cells, rec-eel LH for 30 min data, which are given here for 1 substance.

For test [1], the target named is eel lutropin/chorionic gonadotropin receptor, wild type (eel).
In test [2] the target is eel LH/CGR-N49Q (eel).
Test [3] concerns the target eel LH/CGR-N306Q (eel).
The target in test [4] is eel LH/CGR-N312Q (eel).
Test [5] addresses eel LH/CGR-N201Q (eel).
The target in test [6] is eel lutropin/chorionic gonadotropin receptor, wild type (eel). The source holds these as a separate data set.
Test [7] deals with eel LH/CGR-N49Q (eel). This is another data set of the same source.
Test [8] deals with eel LH/CGR-N306Q (eel). The source holds these as a separate data set.
In test [9] the target is eel LH/CGR-N312Q (eel). The source holds these as a separate data set.

The substance recombinant eel LH (ligand) came in with a pERK1/2 activity (HTRF), transfected HEK-293 cells, rec-eel LH 250 ng/mL for 0-30 min; peak at 5 min, fold over the basal response in [1] of 3.97 fold. The pERK1/2 activity (HTRF), transfected HEK-293 cells, rec-eel LH 250 ng/mL for 0-30 min; peak at 5 min, fold over the basal response of LH/CGR-wt in test [2] worked out at 3.3 fold; in test [3], 3.1 fold; in test [4] it was 3.7 fold; in test [5] it was 2.6 fold. The EC50 of the cAMP response (HTRF), transfected CHO-K1 cells, rec-eel LH for 30 min in test [6] came out at 0.19 µg/mL; in test [7], 0.215 µg/mL; in test [8], 0.233 µg/mL; in [9], 0.235 µg/mL.
